The results in this text go back to article PMC2914181 (Biochemical and biophysical research communications, 2009).

This data set deals with the molecule itself. The data set can be described thus: SEC. For orientation: Size exclusion chromatography separates by hydrodynamic size, large species first.

B1: Campylobacter jejuni β-hydroxyacyl-ACP dehydratase (FabZ) (enzyme, Campylobacter jejuni strain 81-176, UniProt Q9PIM2 1-146, looked up)
chain: MIDVMQIQEILPHRYPFLLVDKITELKVKEVVLGYKNISISDHVFMGHFPGHPIYPGVLILEGMAQTGGVLAFESMEDKVDPKSKVVYFTGIDGAKFRNPVRPGDRLDYEMSVVKNRGNMWIFKGQAFVDGNLVAEAELKAMIVDK
The stoichiometry N is the number of molecules, sites or subunits per partner or assembly. On to B1, for which the “stoichiometry N” value amounted to 6.
